Data as given in patent US20210403527A1.

Experiments:
[1] = target: NY-ESO-1 peptide on HLA-A*02:01 (human); experiment: AP-1 luciferase reporter; Jurkat J.RT3.T3.5 with CD8A/B; HLA-A2+ 293T cells pulsed with 100 uM NY-ESO-1 peptide; full-length, on cells
[2] = target: composite TCR 001 (human variable domains, mouse constant domains) (mouse) (UniProt P01849); experiment: Flow cytometry, dextramer against CD8a, sorted T cells expressing composite TCR 001 after 12 days of post-sort expansion, left panel
Chain of composite TCR 001 (human variable domains, mouse constant domains) (mouse) (P01849 other isoform, or with tags, fused parts or gaps, chain 1 of 2): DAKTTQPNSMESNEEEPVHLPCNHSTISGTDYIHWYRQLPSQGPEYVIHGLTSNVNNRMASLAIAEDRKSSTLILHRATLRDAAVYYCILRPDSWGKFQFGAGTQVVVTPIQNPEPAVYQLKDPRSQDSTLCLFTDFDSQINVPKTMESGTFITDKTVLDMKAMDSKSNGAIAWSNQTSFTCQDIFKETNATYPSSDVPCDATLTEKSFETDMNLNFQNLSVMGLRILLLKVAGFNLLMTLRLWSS
Chain of composite TCR 001 (human variable domains, mouse constant domains) (mouse) (P01852 other isoform, or with tags, fused parts or gaps, chain 2 of 2, further chain): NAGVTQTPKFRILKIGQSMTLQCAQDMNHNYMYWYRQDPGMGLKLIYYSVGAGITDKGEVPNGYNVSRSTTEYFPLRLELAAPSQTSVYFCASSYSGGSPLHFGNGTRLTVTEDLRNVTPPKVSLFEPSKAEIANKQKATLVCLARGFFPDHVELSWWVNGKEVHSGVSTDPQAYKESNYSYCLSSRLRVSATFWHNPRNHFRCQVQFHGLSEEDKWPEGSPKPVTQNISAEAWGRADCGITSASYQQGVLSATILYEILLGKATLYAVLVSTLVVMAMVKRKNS

[3] = target: HLA-A2/NY-ESO-1 (157-165) complex on cells (human); experiment: cell-based or functional assay

Q: 1G4 was tested. Which signal to noise ratio (RLU with peptide-pulsed APCs / RLU with non-pulsed APCs) [1] did it give?
A: Its signal to noise ratio (RLU with peptide-pulsed APCs / RLU with non-pulsed APCs) is 6.3.

Q: Control Dextramer (peptide-MHC) was tested. Which Dex+ CD8+ (share of cells in the gate) [2] did it give?
A: The Dex+ CD8+ (share of cells in the gate) was 0.52.

Q: “patient-derived NY-ESO-1 specific comparator TCR 1G4” was tested. Which Signal to Noise (S/N) ratio (RLU to peptide pulsed APCs divided by RLU to non-pulsed APCs), AP-1 luciferase reporter T cells [3] did it give?
A: Its Signal to Noise (S/N) ratio (RLU to peptide pulsed APCs divided by RLU to non-pulsed APCs), AP-1 luciferase reporter T cells is 6.3.
